These results are taken from the Human Domainome abundance scans (Beltran et al. 2025).

± gives the uncertainty stated by the source.

First the molecules themselves.
B1: Triacylglycerol hydrolase DDHD2, residues 389 to 447; numbered along this chain, O94830 (parent)
chain: TLEEDLKKLQLSEFFDIFEKEKVDKEALALCTDRDLQEIGIPLGPRKKILNYFSTRKNS

In the data set the parent is B1. The experiment in a line: abundance fitness (aPCA) (normalised: wild type 0, dead -1); higher = more abundant; growth selection in yeast, the domain comes from the species named. Particulars: Homo sapiens.
Take TLEEDLKKLQLSEFFDIFEKEKVDKEALALCTDRDLQEIGIPLGPRKHILNYFSTRKNS: the abundance fitness was -0.213 ± 0.13.

In the case of TLEEDLKKLQLSEFFDIFEKEKVDKEALALCTDRDLQEIGIPLGPRKRILNYFSTRKNS, the abundance fitness is 0.088 ± 0.064.

For TLEEDLKKLQLSEFFDIFEKEKVDKEALALCTDRDLQEIGIPLGPRKSILNYFSTRKNS, the abundance fitness was -0.075 ± 0.069.

As to TLEEDLKKLQLSEFFDIFEKEKVDKEALALCTDRDLQEIGIPLGPRKGILNYFSTRKNS, the abundance fitness was -0.698 ± 0.079.

As for TLEEDLKKLQLSEFFDIFEKEKVDKEALALCTDRDLQEIGIPLGPRKCILNYFSTRKNS, the abundance fitness is -0.408 ± 0.1.

Turning to TLEEDLKKLQLSEFFDIFEKEKVDKEALALCTDRDLQEIGIPLGPRKAILNYFSTRKNS, the abundance fitness came out at 0.106 ± 0.068.

For the variant TLEEDLKKLQLSEFFDIFEKEKVDKEALALCTDRDLQEIGIPLGPRKEILNYFSTRKNS, the abundance fitness was found to be 0.036 ± 0.1.

With TLEEDLKKLQLSEFFDIFEKEKVDKEALALCTDRDLQEIGIPLGPRKYILNYFSTRKNS, the abundance fitness was -0.566 ± 0.16.

Regarding TLEEDLKKLQLSEFFDIFEKEKVDKEALALCTDRDLQEIGIPLGPRKDILNYFSTRKNS, the abundance fitness was -0.184 ± 0.1.

For the variant TLEEDLKKLQLSEFFDIFEKEKVDKEALALCTDRDLQEIGIPLGPRKTILNYFSTRKNS, the abundance fitness came to 0.374 ± 0.078.

As for TLEEDLKKLQLSEFFDIFEKEKVDKEALALCTDRDLQEIGIPLGPRKPILNYFSTRKNS, the abundance fitness is -0.494 ± 0.12.

Take TLEEDLKKLQLSEFFDIFEKEKVDKEALALCTDRDLQEIGIPLGPRKVILNYFSTRKNS: the abundance fitness is 0.244 ± 0.061.

On to TLEEDLKKLQLSEFFDIFEKEKVDKEALALCTDRDLQEIGIPLGPRKIILNYFSTRKNS, for which the abundance fitness came to 0.104 ± 0.12.

On to TLEEDLKKLQLSEFFDIFEKEKVDKEALALCTDRDLQEIGIPLGPRKFILNYFSTRKNS, for which the abundance fitness was -0.457 ± 0.13.

As to TLEEDLKKLQLSEFFDIFEKEKVDKEALALCTDRDLQEIGIPLGPRKNILNYFSTRKNS, the abundance fitness was -0.344 ± 0.11.

With TLEEDLKKLQLSEFFDIFEKEKVDKEALALCTDRDLQEIGIPLGPRKLILNYFSTRKNS, the abundance fitness is -0.007 ± 0.075.

Regarding TLEEDLKKLQLSEFFDIFEKEKVDKEALALCTDRDLQEIGIPLGPRKWILNYFSTRKNS, the abundance fitness was -0.946 ± 0.13.

For the variant TLEEDLKKLQLSEFFDIFEKEKVDKEALALCTDRDLQEIGIPLGPRKMILNYFSTRKNS, the abundance fitness worked out at 0.146 ± 0.11.

Take TLEEDLKKLQLSEFFDIFEKEKVDKEALALCTDRDLQEIGIPLGPRKKIKNYFSTRKNS: the abundance fitness is -0.218 ± 0.1.

TLEEDLKKLQLSEFFDIFEKEKVDKEALALCTDRDLQEIGIPLGPRKKIINYFSTRKNS: the abundance fitness is 0.096 ± 0.11.

In the case of TLEEDLKKLQLSEFFDIFEKEKVDKEALALCTDRDLQEIGIPLGPRKKIWNYFSTRKNS, the abundance fitness was -0.585 ± 0.1.

Regarding TLEEDLKKLQLSEFFDIFEKEKVDKEALALCTDRDLQEIGIPLGPRKKIGNYFSTRKNS, the abundance fitness is -0.291 ± 0.061.

TLEEDLKKLQLSEFFDIFEKEKVDKEALALCTDRDLQEIGIPLGPRKKIRNYFSTRKNS: the abundance fitness was -0.247 ± 0.06.

As to TLEEDLKKLQLSEFFDIFEKEKVDKEALALCTDRDLQEIGIPLGPRKKIDNYFSTRKNS, the abundance fitness turned out to be 0.14 ± 0.11.

As for TLEEDLKKLQLSEFFDIFEKEKVDKEALALCTDRDLQEIGIPLGPRKKINNYFSTRKNS, the abundance fitness was -0.483 ± 0.17.

For the variant TLEEDLKKLQLSEFFDIFEKEKVDKEALALCTDRDLQEIGIPLGPRKKIPNYFSTRKNS, the abundance fitness was -0.401 ± 0.11.

Turning to TLEEDLKKLQLSEFFDIFEKEKVDKEALALCTDRDLQEIGIPLGPRKKIMNYFSTRKNS, the abundance fitness was -0.209 ± 0.1.

For the variant TLEEDLKKLQLSEFFDIFEKEKVDKEALALCTDRDLQEIGIPLGPRKKIANYFSTRKNS, the abundance fitness was -0.415 ± 0.089.

For TLEEDLKKLQLSEFFDIFEKEKVDKEALALCTDRDLQEIGIPLGPRKKIHNYFSTRKNS, the abundance fitness is -0.087 ± 0.14.

Regarding TLEEDLKKLQLSEFFDIFEKEKVDKEALALCTDRDLQEIGIPLGPRKKIQNYFSTRKNS, the abundance fitness was -0.345 ± 0.11.

As to TLEEDLKKLQLSEFFDIFEKEKVDKEALALCTDRDLQEIGIPLGPRKKIFNYFSTRKNS, the abundance fitness was -0.008 ± 0.15.

Take TLEEDLKKLQLSEFFDIFEKEKVDKEALALCTDRDLQEIGIPLGPRKKITNYFSTRKNS: the abundance fitness is -0.209 ± 0.092.

For the variant TLEEDLKKLQLSEFFDIFEKEKVDKEALALCTDRDLQEIGIPLGPRKKICNYFSTRKNS, the abundance fitness was -0.215 ± 0.13.

Regarding TLEEDLKKLQLSEFFDIFEKEKVDKEALALCTDRDLQEIGIPLGPRQKILNYFSTRKNS, the abundance fitness is 0.492 ± 0.1.

Turning to TLEEDLKKLQLSEFFDIFEKEKVDKEALALCTDRDLQEIGIPLGPRAKILNYFSTRKNS, the abundance fitness turned out to be 0.296 ± 0.067.

With TLEEDLKKLQLSEFFDIFEKEKVDKEALALCTDRDLQEIGIPLGPRLKILNYFSTRKNS, the abundance fitness was -0.087 ± 0.071.

As for TLEEDLKKLQLSEFFDIFEKEKVDKEALALCTDRDLQEIGIPLGPRMKILNYFSTRKNS, the abundance fitness was 0.58 ± 0.11.

In the case of TLEEDLKKLQLSEFFDIFEKEKVDKEALALCTDRDLQEIGIPLGPRGKILNYFSTRKNS, the abundance fitness is 0.101 ± 0.061.

For the variant TLEEDLKKLQLSEFFDIFEKEKVDKEALALCTDRDLQEIGIPLGPRCKILNYFSTRKNS, the abundance fitness is 0.136 ± 0.081.

Turning to TLEEDLKKLQLSEFFDIFEKEKVDKEALALCTDRDLQEIGIPLGPRPKILNYFSTRKNS, the abundance fitness is -0.627 ± 0.12.

As to TLEEDLKKLQLSEFFDIFEKEKVDKEALALCTDRDLQEIGIPLGPRWKILNYFSTRKNS, the abundance fitness was -0.368 ± 0.098.

For TLEEDLKKLQLSEFFDIFEKEKVDKEALALCTDRDLQEIGIPLGPRFKILNYFSTRKNS, the abundance fitness was -0.772 ± 0.16.

Consider TLEEDLKKLQLSEFFDIFEKEKVDKEALALCTDRDLQEIGIPLGPRSKILNYFSTRKNS, for which the abundance fitness stood at 0.225 ± 0.069.

For the variant TLEEDLKKLQLSEFFDIFEKEKVDKEALALCTDRDLQEIGIPLGPRIKILNYFSTRKNS, the abundance fitness was determined as 0.193 ± 0.11.

On to TLEEDLKKLQLSEFFDIFEKEKVDKEALALCTDRDLQEIGIPLGPRNKILNYFSTRKNS, for which the abundance fitness was 0.254 ± 0.1.
